Test results published in paper PMC6681339, “CoCUN, a Novel Ubiquitin Binding Domain Identified in N4BP1” (Biomolecules, 2019).
No end group written: not given here.

Assays:
ubiquitin [1] = biological target: T1, ubiquitin (UniProt P0CG48 1-76, 15N labelled in the complementary NMR experiment; unlabelled otherwise); assay: ITC; 2.78 mM N4BP1 (847-896) titrated to 200 µM ubiquitin in the cell; 20 mM Tris-HCl pH 8.0, 150 mM NaCl, 5% glycerol; room temperature; one-site binding model; details: both partners purified
T1 construct: the model of the complex used the ubiquitin structure PDB 1D3Z and BMRB 6457; also called monoubiquitin; UBQ

ubiquitin [2] = biological target: T1, ubiquitin; assay: ITC; 3.3 mM ubiquitin titrated to 246 µM N4BP1 (847-896) in the cell; 20 mM Tris-HCl pH 8.0, 150 mM NaCl, 5% glycerol; room temperature; one-site binding model; details: both partners purified

Kd (ubiquitin [1]): 61.8 ± 5.2 µM
dH (ubiquitin [1]): -3.11 ± 0.0956 kcal/mol
Kd (ubiquitin [2]): 49.7 ± 3.6 µM
B1: CoCUN domain of N4BP1 (aa 847–896), purified polypeptide (domain or fragment, human, UniProt O75113 847-896, looked up)
chain: AQRSSAETNELREALLKIFPDSEQRLKIDQILVAHPYMKDLNALSAMVLD
modifications: also: 15N isotopic labelling
notes: also called Cousin of CUBAN; N4BP1 UBD; source: bacterial expression (protocol for NMR sample preparation), purified
